Data from US20200291116A1 (ABEXXA BIOLOGICS, published 2020).

Assays:
[1] = molecular target: T1, HLA-E*0103 (extracellular domain with beta-2-microglobulin, recombinant) (human); assay: in vitro refold, Superdex 75, SEC-HPLC, 3D12 binding
[2] = molecular target: T1, HLA-E*0103 (extracellular domain with …); assay: peptide binding and in vitro refolding

Binder	binding result [1]	binding result [2]
GLADKVYFL [peptide GLADKVYFL (CAD protein)]	binds	
YLLPAIVHI [peptide YLLPAIVHI (RNA Helicase p68)]		binds
